{
  "source": "paper PMC10469072",
  "target": "CD22 (recombinant, histidine-tagged; Thermo Fisher A42609) (human, UniProt P20273 20-687)",
  "sequence (P20273 20-687, one chain of several)": "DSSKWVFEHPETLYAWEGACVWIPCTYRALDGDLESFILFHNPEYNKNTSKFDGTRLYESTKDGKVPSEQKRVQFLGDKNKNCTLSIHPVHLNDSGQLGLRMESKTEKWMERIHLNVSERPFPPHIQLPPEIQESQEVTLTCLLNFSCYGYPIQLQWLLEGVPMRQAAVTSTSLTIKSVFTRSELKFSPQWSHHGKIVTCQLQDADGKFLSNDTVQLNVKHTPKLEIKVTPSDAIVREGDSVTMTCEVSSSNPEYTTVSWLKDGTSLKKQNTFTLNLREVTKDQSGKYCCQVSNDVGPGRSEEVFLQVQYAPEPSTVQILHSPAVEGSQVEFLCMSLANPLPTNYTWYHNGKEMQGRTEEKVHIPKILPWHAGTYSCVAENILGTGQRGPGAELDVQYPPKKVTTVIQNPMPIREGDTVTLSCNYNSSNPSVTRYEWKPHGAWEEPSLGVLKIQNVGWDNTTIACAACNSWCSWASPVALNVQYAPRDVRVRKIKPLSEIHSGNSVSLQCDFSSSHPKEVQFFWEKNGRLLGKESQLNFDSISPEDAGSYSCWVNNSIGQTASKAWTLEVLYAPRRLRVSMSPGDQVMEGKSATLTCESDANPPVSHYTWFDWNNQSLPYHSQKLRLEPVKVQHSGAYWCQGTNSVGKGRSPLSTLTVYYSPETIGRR",
  "assay": "His-bead pull-down with qRT-PCR",
  "data": [
    {"binder": "B-ALL1 (structured_RNA, 2'-fluoro pyrimidines (2'F-C, 2'F-U), unmodified purines) RNA: GGGAGGACGAUGCGGGCCAUUCGUCUUUUCGUCCCCAGACGACUCGCCCGA", "values": [
      {"measurement": "binding result", "result": "binds"}
    ]}
  ]
}
